Blank lines part the entries; values can stand above or below the substance they belong to.
What was measured:
[1] = target: T1, GST-KIAA0300 PDZ domain 1 (UniProt O15018); experiment: G' assay; note: key of the grades not given here
T1 sequence (looked up): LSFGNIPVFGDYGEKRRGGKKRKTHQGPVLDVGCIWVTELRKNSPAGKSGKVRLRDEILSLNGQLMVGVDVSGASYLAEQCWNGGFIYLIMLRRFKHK

[2] = target: GST-DLG-1 PDZ domains 1 to 3 (Example 6) (Homo sapiens) (UniProt Q12959); experiment: G assay competition vs 10 uM biotin-CD95 20-mer; competitor 100 uM
[3] = target: GST-DLG-1 PDZ domains 1 to 3 (Example 6) (Homo sapiens) (UniProt Q12959); experiment: G assay competition vs 20 uM biotin-CD46 20-mer; competitor 100 uM
[4] = target: GST-DLG-1 PDZ domains 1 to 3 (Example 6) (Homo sapiens) (UniProt Q12959); experiment: G assay competition vs 10 uM biotin-KV1.3 20-mer; competitor 100 uM
[5] = target: GST-DLG-1 PDZ domains 1 to 3 (Example 6) (Homo sapiens) (UniProt Q12959); experiment: G assay competition vs 20 uM biotin-CLASP-2 20-mer; competitor 100 uM
[6] = target: GST-DLG-1 PDZ domains 1 to 3 (Example 6) (Homo sapiens) (UniProt Q12959); experiment: G assay competition vs 10 uM biotin-CD95 20-mer; competitor 500 uM
[7] = target: GST-PSD95 PDZ domains 1, 2, 3 (Homo sapiens) (UniProt P78352); experiment: as above
[8] = target: GST-DLG-1 PDZ domains 1 to 3 (Example 6) (Homo sapiens) (UniProt Q12959); experiment: G assay competition vs 20 uM biotin-CD46 20-mer; competitor 500 uM
[9] = target: GST-PSD95 PDZ domains 1, 2, 3 (Homo sapiens) (UniProt P78352); experiment: as above
[10] = target: GST-DLG-1 PDZ domains 1 to 3 (Example 6) (Homo sapiens) (UniProt Q12959); experiment: G assay competition vs 10 uM biotin-CD95 20-mer; competitor 1000 uM
[11] = target: GST-PSD95 PDZ domains 1, 2, 3 (Homo sapiens) (UniProt P78352); experiment: as above
[12] = target: GST-PSD95 PDZ domains 1, 2, 3 (Homo sapiens) (UniProt P78352); experiment: G assay competition vs 10 uM biotin-KV1.3 20-mer; competitor 500 uM
[13] = target: GST-DLG-1 PDZ domains 1 to 3 (Example 6) (Homo sapiens) (UniProt Q12959); experiment: G assay competition vs 20 uM biotin-CD46 20-mer; competitor 1000 uM
[14] = target: GST-PSD95 PDZ domains 1, 2, 3 (Homo sapiens) (UniProt P78352); experiment: as above
[15] = target: GST-PSD95 PDZ domains 1, 2, 3 (Homo sapiens) (UniProt P78352); experiment: G assay competition vs 10 uM biotin-KV1.3 20-mer; competitor 1000 uM
[16] = target: GST-DLG-1 PDZ domains 1 to 3 (Example 6) (Homo sapiens) (UniProt Q12959); experiment: G assay competition vs 20 uM biotin-CLASP-2 20-mer; competitor 500 uM
[17] = target: GST-PSD95 PDZ domains 1, 2, 3 (Homo sapiens) (UniProt P78352); experiment: as above
[18] = target: GST-DLG-1 PDZ domains 1 to 3 (Example 6) (Homo sapiens) (UniProt Q12959); experiment: G assay competition vs 20 uM biotin-CLASP-2 20-mer; competitor 1000 uM
[19] = target: GST-PSD95 PDZ domains 1, 2, 3 (Homo sapiens) (UniProt P78352); experiment: as above
[20] = target: GST-BAI-1 Associated Protein PDZ domain 2 (Mus musculus (Mouse)) (UniProt Q6RHR9); experiment: G' assay; note: key of the grades not given here
[21] = target: GST-TIP1 PDZ domain 1 (Table 9 insert) (Homo sapiens (Human)) (UniProt O14907); experiment: G' assay; note: key of the grades not given here
[22] = target: GST-p55T PDZ domain 1 (Homo sapiens (Human)) (UniProt Q9NZW5); experiment: G' assay; note: key of the grades not given here
[23] = target: T2, GST-KIAA0300 PDZ domain 2 (UniProt O15018); experiment: G' assay; note: key of the grades not given here
T2 sequence (looked up): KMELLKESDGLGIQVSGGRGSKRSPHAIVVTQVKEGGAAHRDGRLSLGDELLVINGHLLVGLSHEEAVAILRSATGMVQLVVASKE

[24] = target: GST-DLG-1 PDZ domains 1 to 3 (Example 6) (Homo sapiens) (UniProt Q12959); experiment: G assay competition vs 10 uM biotin-CD95 20-mer; competitor 50 uM
[25] = target: GST-DLG-1 PDZ domains 1 to 3 (Example 6) (Homo sapiens) (UniProt Q12959); experiment: G assay competition vs 20 uM biotin-CD46 20-mer; competitor 50 uM
[26] = target: GST-DLG-1 PDZ domains 1 to 3 (Example 6) (Homo sapiens) (UniProt Q12959); experiment: G assay competition vs 10 uM biotin-KV1.3 20-mer; competitor 50 uM
[27] = target: GST-DLG-1 PDZ domains 1 to 3 (Example 6) (Homo sapiens) (UniProt Q12959); experiment: G assay competition vs 20 uM biotin-CLASP-2 20-mer; competitor 50 uM

Sequence of GST-PSD95 PDZ domains 1, 2, 3 (Homo sapiens) (P78352 62-395): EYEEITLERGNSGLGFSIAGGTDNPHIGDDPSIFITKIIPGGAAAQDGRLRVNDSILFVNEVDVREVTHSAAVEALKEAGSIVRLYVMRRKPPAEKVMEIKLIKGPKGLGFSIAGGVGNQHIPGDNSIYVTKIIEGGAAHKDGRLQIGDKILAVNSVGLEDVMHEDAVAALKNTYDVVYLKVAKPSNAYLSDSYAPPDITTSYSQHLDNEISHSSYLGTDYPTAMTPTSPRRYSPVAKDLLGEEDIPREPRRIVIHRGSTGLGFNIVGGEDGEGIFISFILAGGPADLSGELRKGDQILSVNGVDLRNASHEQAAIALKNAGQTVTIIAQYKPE
Sequence of GST-BAI-1 Associated Protein PDZ domain 2 (Mus musculus (Mouse)) (Q6RHR9 455-558): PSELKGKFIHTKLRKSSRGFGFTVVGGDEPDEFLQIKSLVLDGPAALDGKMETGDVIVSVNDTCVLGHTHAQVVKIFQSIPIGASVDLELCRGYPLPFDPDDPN
Sequence of GST-TIP1 PDZ domain 1 (Table 9 insert) (Homo sapiens (Human)) (O14907 14-116): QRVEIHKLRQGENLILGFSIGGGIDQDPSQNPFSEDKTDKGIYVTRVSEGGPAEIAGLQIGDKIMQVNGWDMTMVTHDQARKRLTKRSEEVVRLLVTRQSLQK

Substance: AdenoE4 typ9 (peptide)
Classification [1]: 1 A450 class

Substance: CD46 8-mer (peptide)
% binding of labelled 20-mer [2]: 68%
% binding of labelled 20-mer [3]: 90%
% binding of labelled 20-mer [4]: 63%
% binding of labelled 20-mer [5]: 90%

Substance: HPV E6 #18 (peptide)
Classification [20]: 5 A450 class
Classification [21]: 4 A450 class

Substance: MINT-1 (peptide)
Classification [1]: 4 A450 class

Substance: presenilin-2 (peptide)
Classification [1]: 1 A450 class
Classification [23]: 1 A450 class

Now from value to substance:

% binding of labelled 20-mer [6]: 51%
% binding of labelled 20-mer [7]: 55%
% binding of labelled 20-mer [8]: 72%
% binding of labelled 20-mer [9]: 75%
% binding of labelled 20-mer [10]: 46%
% binding of labelled 20-mer [11]: 55%
% binding of labelled 20-mer [12]: 81%
% binding of labelled 20-mer [13]: 45%
% binding of labelled 20-mer [14]: 59%
% binding of labelled 20-mer [15]: 50%
% binding of labelled 20-mer [16]: 61%
% binding of labelled 20-mer [17]: 82%
% binding of labelled 20-mer [18]: 59%
% binding of labelled 20-mer [19]: 63%
Substance: CLASP-2 3-mer (peptide)

Classification [1]: 2 A450 class
Substance: CSPG4 (chondroitin sulfae proteoglycan 4, melanoma-associated) (peptide)

Classification [1]: 3 A450 class
Classification [22]: 1 A450 class
Substance: MINT-2 (peptide)

Classification [1]: 2 A450 class
Substance: ephrin B2 (peptide)

Classification [22]: 1 A450 class
Substance: presenilin-1 (peptide)

% binding of labelled 20-mer [24]: 70%
% binding of labelled 20-mer [25]: 110%
% binding of labelled 20-mer [26]: 84%
% binding of labelled 20-mer [27]: 73%
Substance: unlabeled 8 amino acid peptide corresponding to the C-terminus of CD95
